The target in the test is human CD40 (human) (UniProt P25942). The experiment in a line: flow cytometry on PATHHUNTER U2OS-NIK/NFkB reporter cells; isotype control; beside it Unstained 56.7 and hCD40-APC 16805.
Chain of human CD40 (human) (P25942 21-277): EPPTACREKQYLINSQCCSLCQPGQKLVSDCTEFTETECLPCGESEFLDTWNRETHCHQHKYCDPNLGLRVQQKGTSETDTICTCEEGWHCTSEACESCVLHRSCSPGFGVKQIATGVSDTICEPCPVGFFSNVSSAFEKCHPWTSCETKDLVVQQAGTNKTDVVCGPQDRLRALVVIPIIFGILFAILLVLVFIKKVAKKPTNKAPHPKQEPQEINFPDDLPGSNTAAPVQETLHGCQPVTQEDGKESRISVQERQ

In the case of APC Isotype (antibody), the MFI-APC was 2160.

The values are drawn from patent publication US20220259281A1.
